The target of this assay is Streptococcus pyogenes Cas9 (Streptococcus pyogenes, UniProt Q99ZW2 1-1368). The assay can be described thus: native gel or EMSA. A general note: In EMSA bound probe runs differently from free probe, usually more slowly.

B1: AcrIIA4 (natural protein, Listeria monocytogenes prophage, UniProt A0A247D711 1-87, looked up)
chain: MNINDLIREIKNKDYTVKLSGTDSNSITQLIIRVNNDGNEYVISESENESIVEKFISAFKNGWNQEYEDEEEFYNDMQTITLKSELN
A word on the Kd: it is a measure of binding affinity in units of concentration. A high value points to lower affinity. Turning to B1, binding was characterised by a dissociation constant (Kd) of 78 nM.

Values taken from PMC6480404 (Molecular cell, 2018).
